Measurements from PMC2715020, “Identification, functional characterization and developmental regulation of sesquiterpene synthases from sunflower capitate glandular trichomes” (BMC Plant Biology, 2009).

Experiments:
HaCS (HaTPS2) [1] = target: T1, HaCS (HaTPS2) (Helianthus annuus, UniProt Q4U3F6); assay: GC-MS of products after incubation with FDP; type: biochemical; set-up: gene CS; N-terminal thioredoxin fusion (E. coli, Ni-NTA; also S. cerevisiae EPY300), and unfused in yeast; details: thioredoxin fusion, 50 μM FDP, MgCl2 and MnCl2, pH 7.0, 30°C
T1 sequence (Q4U3F6 1-555): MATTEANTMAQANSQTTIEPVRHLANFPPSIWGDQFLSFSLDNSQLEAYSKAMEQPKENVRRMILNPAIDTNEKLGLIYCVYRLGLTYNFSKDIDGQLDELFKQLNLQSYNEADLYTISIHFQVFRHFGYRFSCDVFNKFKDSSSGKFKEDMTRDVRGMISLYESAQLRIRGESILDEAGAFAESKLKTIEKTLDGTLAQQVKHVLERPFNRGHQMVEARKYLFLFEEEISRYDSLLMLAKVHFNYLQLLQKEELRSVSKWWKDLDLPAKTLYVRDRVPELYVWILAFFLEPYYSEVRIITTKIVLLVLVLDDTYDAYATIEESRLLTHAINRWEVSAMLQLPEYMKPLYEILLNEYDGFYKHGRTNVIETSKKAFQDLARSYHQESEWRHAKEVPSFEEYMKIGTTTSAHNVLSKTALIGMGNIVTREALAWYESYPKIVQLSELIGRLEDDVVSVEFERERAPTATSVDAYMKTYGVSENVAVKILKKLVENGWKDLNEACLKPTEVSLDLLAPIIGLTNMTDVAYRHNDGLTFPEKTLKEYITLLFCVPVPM

HaCS (HaTPS2) [2] = target: T1, HaCS (HaTPS2); assay: GC-MS of dodecane overlay, expression in S. cerevisiae EPY300; type: cell-based; set-up: gene CS; details: FDP-overproducing yeast; HaCS and thioredoxin-HaCS
purified protein = substrate: CC(C)=CCC/C(C)=C/CC/C(C)=C/CO[P@@](=O)(O)OP(=O)(O)O; assay: purified protein; type: biochemical, Helianthus annuus; details: 15 mM MOPSO, 10 mM MgCl2, 1 mM MnCl2, pH 7.0 (assay buffer), 30°C, FPP 0.125 to 30 μM

CC(C)=CCC/C(C)=C/CC/C(C)=C/COP(=O)(O)OP(=O)(O)O [FPP]
GC-MS of products after incubation with FDP (HaCS (HaTPS2) [1]): in vitro enzyme assay products with substrate FDP showed the presence of the parental mass

CC1=C[C@@H]2C(=C(C)CC[C@H]2C(C)C)CC1 [δ-cadinene]
GC-MS of dodecane overlay, expression in S. cerevisiae EPY300 (HaCS (HaTPS2) [2]): One of the two main products was identified as δ-cadinene

B1: HaGAS1 (HaTPS1a; native, thioredoxin removed) (Helianthus annuus) (protein)
chain: MAAVGASATPLTNTKSTAEPVRPVANFPPSVWGDLFLSFSLDKSIMEEYAEAMEEPKEQVRRLILDPTMDSNKKLSLIYTVHRLGLTYMFLKEIEAQLDRLFKEFNLEDYVELDLYTISINFQAFRHLGYKLPCDVFNKFKNDDSTTFKESITGDVRGMLGLYESAQLRLKGENILDEASAFAETKLKSLVNTLEGSLAQQVKQSLRRPFHQGMPMVEARLYFSNYQEECSAHDSILKLAKLHFNYLQLQQKEELRIVSQWWKDMRFQETTPYIRDRVPEIYLWILGLYFEPRYSLARIIATKITLFLVVLDDTYDAYATIEEIRLLTDAINRWDISAMNQIPEYIRPFYKILLDEYAELEKQLAKEGRANSVIASKEAFQDIARGYLEEAEWTNSGYVASFPEYMKNGLITSAYNVISKSALVGMGEIVSEDALVWYESHPQILQASELISRLQDDVMTYQFERERGQSATGVDSYIKTYGVSEKVAIDELKKMIENAWKEINEGCLKPREVSMDLLAPILNLARMIDVVYRYDDGFTFPGKTLKEYITLLFVGSSPM
notes: expressed in E. coli from pET-32 EK/LIC, thioredoxin part removed by enterokinase
Km (purified protein): 0.82 µM

B2: thioredoxin-HaGAS1 fusion protein (Helianthus annuus) (protein)
chain: B1 chain
notes: full length (559 residues) with uncleaved N-terminal thioredoxin and 6x-His tag (pET-32 EK/LIC), E. coli, Ni-NTA purified
Km (purified protein): 1.06 µM

B3: HaGAS2 (HaTPS1b; native, thioredoxin removed) (Helianthus annuus) (protein)
chain: MAAVGASATLLTNTKSAEEPVRPVANFPPSVWGDLFLSFSLDNSMMEEYAEAMEEPKGQVRKLILDPTMDSNKKLSLIYTVHRLGLTYMFFKEIEGQLDRLFKEFNLEDYVEVDLYTISTNFQAFRHLGYKLSCDVFNKFKNYDSNTFKESITSDVRGMLGLYESAQLRLKGEKILDEASAFTETKLKSLVKTLEGSLAQQVKQSLKRPFHQGMPMVEARLYFSNYQEECSRHDSLLKLAKLHFNYLQLQQKEELRIVSQWWKDMRFQETTPYIRDRVPEIYLWILGLYFEPRYSLARIIATKITLFLVVLDDTYDAYATIEEVRLLTDAINRWDIGAMSQIPEYIRPFYKILLDEYAELEKQLAKEGRANSVIASKEAFQDIARGYLEEAEWTNSGYVASFPEYMKNGLITSAYNVISKSALVGMGEIVSEDALAWYESHPQILQASELISRLQDDVMTYQFERERGQSATGVDAYIKTYGVSEKEAIDELKKMIENAWKEINEGCLKPREVSMDLLAPILNLARMIDVVYRYDDGFTFPGKTLKEYITLLFVGSSPM
notes: full length, 559 residues; expressed in E. coli from pET-32 EK/LIC, thioredoxin part removed by enterokinase
Km (purified protein): 0.74 µM
